The target of assay [1] is recombinant extracellular domain (ECD) of the human prolactin receptor (PRLR) (human) (UniProt P16471). Briefly: Biacore SPR, procedures similar to Table 6, PRLR ECD.
Assay [2] has the same target. The assay is described as follows: Biacore 2000 SPR, antibody captured, PRLR ECD injected. (In SPR one partner is held on a chip, and binding of the other changes the refractive index at the surface.)
Assay [3] concerns the target T1, human prolactin receptor (PRLR), full length on cells (human) (UniProt P16471).
T1 sequence: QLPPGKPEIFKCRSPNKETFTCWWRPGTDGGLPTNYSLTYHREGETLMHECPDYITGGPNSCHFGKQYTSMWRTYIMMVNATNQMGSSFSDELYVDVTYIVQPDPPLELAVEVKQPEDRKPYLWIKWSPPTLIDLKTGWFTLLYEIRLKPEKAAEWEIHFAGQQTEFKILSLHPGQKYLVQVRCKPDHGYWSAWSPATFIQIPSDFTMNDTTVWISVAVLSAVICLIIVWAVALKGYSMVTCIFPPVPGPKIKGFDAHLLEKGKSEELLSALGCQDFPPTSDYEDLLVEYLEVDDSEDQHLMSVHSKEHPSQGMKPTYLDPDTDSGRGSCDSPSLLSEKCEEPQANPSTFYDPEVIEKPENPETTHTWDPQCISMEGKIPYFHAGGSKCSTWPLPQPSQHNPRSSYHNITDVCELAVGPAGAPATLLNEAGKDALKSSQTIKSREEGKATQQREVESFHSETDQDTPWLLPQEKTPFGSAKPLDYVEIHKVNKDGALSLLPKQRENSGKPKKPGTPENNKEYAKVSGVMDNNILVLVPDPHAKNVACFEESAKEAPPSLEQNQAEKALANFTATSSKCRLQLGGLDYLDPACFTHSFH
Briefly: cell-based or functional assay.

B1: XHA.06.642 (antibody, from another filing, V domains shown)
VH: EVQLVESGGDLVKPGGSLKLSCAVSGFTFSSYGMSWVRQTPDKRLEWVATVSSGGTYTYYPDSVKGRFTISRDNAKNTLYLQMSSLKSEDSAMYYCARHRGNYYATYYYAMDYWGQGTSVTVSS
VL: DIVLTQSPASLAVSLGQGATISCRASKSVSTSGYTYMHWYQQKPGQPPKLLIYLASNLESGVPARFSGSGSGTDFTLNIHPVEEEDAATYYCQHSGELPPSFGGGTKLEIKR
As for B1, the Kd in assay [1] came out at 0.934 nM.

B2: XHA.06.983 (antibody, from another filing, V domains shown)
VH: DVQLVESGGGLVQPGGSRKLSCAASGFAFSSFGMQWVRQAPEKGLEWVAYISSGSSTIYYADTVKGRFTISRDNPKNTLFLQMTSLRSEDTAMYYCVRSGRDYWGQGTSVTVSS
VL: SIVMTQTPKFLLVSAGDRVTITCKASQGVSNDVAWFQQKPGQSPKLLIYSASTRYTGVPDRLTGSGYGTDFTFTINTVQAEDLAVYFCQQDYTSPTFGGGTKLEIKR
With B2, the dissociation constant (Kd) in assay [2] was 0.1 nM. Also, the equilibrium dissociation constant (Kd) in assay [1] came to 0.043 nM. For the same molecule, in assay [3], the Proliferation inhibition IC50 for BaF3/PRLR amounted to 0.1 and the pERK1/2 inhibition IC50 (prolactin-stimulated T47D cells) was determined as 0.11.

The term Kd denotes the concentration at which binding is half-saturated.

These data come from patent US20080292620A1.
